Source: paper PMC4117486, “Investigation of Endoglin Wild-Type and Missense Mutant Protein Heterodimerisation Using Fluorescence Microscopy Based IF, BiFC and FRET Analyses” (PLoS ONE, 2014)

B1: endoglin wild-type, EYFP- or ECFP-tagged (receptor, human, UniProt P17813 26-658, looked up)
chain: ETVHCDLQPVGPERGEVTYTTSQVSKGCVAQAPNAILEVHVLFLEFPTGPSQLELTLQASKQNGTWPREVLLVLSVNSSVFLHLQALGIPLHLAYNSSLVTFQEPPGVNTTELPSFPKTQILEWAAERGPITSAAELNDPQSILLRLGQAQGSLSFCMLEASQDMGRTLEWRPRTPALVRGCHLEGVAGHKEAHILRVLPGHSAGPRTVTVKVELSCAPGDLDAVLILQGPPYVSWLIDANHNMQIWTTGEYSFKIFPEKNIRGFKLPDTPQGLLGEARMLNASIVASFVELPLASIVSLHASSCGGRLQTSPAPIQTTPPKDTCSPELLMSLIQTKCADDAMTLVLKKELVAHLKCTITGLTFWDPSCEAEDRGDKFVLRSAYSSCGMQVSASMISNEAVVNILSSSSPQRKKVHCLNMDSLSFQLGLYLSPHFLQASNTIEPGQQSFVQVRVSPSVSEFLLQLDSCHLDLGPEGGTVELIQGRAAKGNCVSLLSPSPEGDPRFSFLLHFYTVPIPKTGTLSCTVALRPKTGSQDQEVHRTVFMRLNIISPDLSGCTSKGLVLPAVLGITFGAFLIGALLTAALWYIYSHTRSPSKREPVVAVAAPASSESSSTNHSIGSTQSTPCSTSSMA
notes: endoglin (CD105), human, wild type; EYFP-tagged with the ECFP-tagged receptors and with soluble ECFP; ECFP-tagged with the EYFP-tagged mutants; both versions together for the homodimer; also called endoglin^wt-EYFP; endoglin^wt-ECFP; source: CHO cells, transiently co-transfected (50 ng of each construct per 100 000 cells), in living cells; not shown: EYFP (acceptor) or ECFP (donor), C-terminal, …
B2: endoglin G52V, EYFP-tagged (with an ECFP-tagged copy for the homodimer) (receptor, human, UniProt P17813 26-658, looked up)
chain: ETVHCDLQPVGPERGEVTYTTSQVSKVCVAQAPNAILEVHVLFLEFPTGPSQLELTLQASKQNGTWPREVLLVLSVNSSVFLHLQALGIPLHLAYNSSLVTFQEPPGVNTTELPSFPKTQILEWAAERGPITSAAELNDPQSILLRLGQAQGSLSFCMLEASQDMGRTLEWRPRTPALVRGCHLEGVAGHKEAHILRVLPGHSAGPRTVTVKVELSCAPGDLDAVLILQGPPYVSWLIDANHNMQIWTTGEYSFKIFPEKNIRGFKLPDTPQGLLGEARMLNASIVASFVELPLASIVSLHASSCGGRLQTSPAPIQTTPPKDTCSPELLMSLIQTKCADDAMTLVLKKELVAHLKCTITGLTFWDPSCEAEDRGDKFVLRSAYSSCGMQVSASMISNEAVVNILSSSSPQRKKVHCLNMDSLSFQLGLYLSPHFLQASNTIEPGQQSFVQVRVSPSVSEFLLQLDSCHLDLGPEGGTVELIQGRAAKGNCVSLLSPSPEGDPRFSFLLHFYTVPIPKTGTLSCTVALRPKTGSQDQEVHRTVFMRLNIISPDLSGCTSKGLVLPAVLGITFGAFLIGALLTAALWYIYSHTRSPSKREPVVAVAAPASSESSSTNHSIGSTQSTPCSTSSMA
notes: endoglin (CD105), human, HHT1 missense mutant G52V; also called mutant G52V; source: CHO cells, transiently co-transfected (50 ng of each construct per 100 000 cells), in living cells; not shown: EYFP (acceptor) or ECFP (donor, homodimer only), C-terminal, kept
B3: endoglin S480C, EYFP-tagged (receptor, human, UniProt P17813 26-658, looked up)
chain: ETVHCDLQPVGPERGEVTYTTSQVSKGCVAQAPNAILEVHVLFLEFPTGPSQLELTLQASKQNGTWPREVLLVLSVNSSVFLHLQALGIPLHLAYNSSLVTFQEPPGVNTTELPSFPKTQILEWAAERGPITSAAELNDPQSILLRLGQAQGSLSFCMLEASQDMGRTLEWRPRTPALVRGCHLEGVAGHKEAHILRVLPGHSAGPRTVTVKVELSCAPGDLDAVLILQGPPYVSWLIDANHNMQIWTTGEYSFKIFPEKNIRGFKLPDTPQGLLGEARMLNASIVASFVELPLASIVSLHASSCGGRLQTSPAPIQTTPPKDTCSPELLMSLIQTKCADDAMTLVLKKELVAHLKCTITGLTFWDPSCEAEDRGDKFVLRSAYSSCGMQVSASMISNEAVVNILSSSSPQRKKVHCLNMDSLSFQLGLYLSPHFLQASNTIEPGQQSFVQVRVCPSVSEFLLQLDSCHLDLGPEGGTVELIQGRAAKGNCVSLLSPSPEGDPRFSFLLHFYTVPIPKTGTLSCTVALRPKTGSQDQEVHRTVFMRLNIISPDLSGCTSKGLVLPAVLGITFGAFLIGALLTAALWYIYSHTRSPSKREPVVAVAAPASSESSSTNHSIGSTQSTPCSTSSMA
notes: endoglin (CD105), human, missense mutant S480C (found in a Scottish HHT family); site-directed mutagenesis on pCMV5-endoglin wild type, moved into pEYFP-N1; also called mutant S480C; source: CHO cells, transiently co-transfected (50 ng of each construct per 100 000 cells), in living cells; not shown: EYFP, C-terminal, kept
B4: TβRII, ECFP- or EYFP-tagged (receptor, UniProt P37173 23-567, looked up)
chain: TIPPHVQKSVNNDMIVTDNNGAVKFPQLCKFCDVRFSTCDNQKSCMSNCSITSICEKPQEVCVAVWRKNDENITLETVCHDPKLPYHDFILEDAASPKCIMKEKKKPGETFFMCSCSSDECNDNIIFSEEYNTSNPDLLLVIFQVTGISLLPPLGVAISVIIIFYCYRVNRQQKLSSTWETGKTRKLMEFSEHCAIILEDDRSDISSTCANNINHNTELLPIELDTLVGKGRFAEVYKAKLKQNTSEQFETVAVKIFPYEEYASWKTEKDIFSDINLKHENILQFLTAEERKTELGKQYWLITAFHAKGNLQEYLTRHVISWEDLRKLGSSLARGIAHLHSDHTPCGRPKMPIVHRDLKSSNILVKNDLTCCLCDFGLSLRLDPTLSVDDLANSGQVGTARYMAPEVLESRMNLENVESFKQTDVYSMALVLWEMTSRCNAVGEVKDYEPPFGSKVREHPCVESMKDNVLRDRGRPEIPSFWLNHQGIQMVCETLTECWDHDPEARLTAQCVAERFSELEHLDRLSGRSCSEEKIPEDGSLNTTK
notes: TβRII, TGF-β type II receptor; The methods name only the EYFP version; the results use an ECFP-tagged version; also called TβRII-EYFP; TGF-β type-II receptor; source: CHO cells, transiently co-transfected, in living cells
B5: ALK5, ECFP- or EYFP-tagged (receptor, UniProt P36897 34-503, looked up)
chain: LQCFCHLCTKDNFTCVTDGLCFVSVTETTDKVIHNSMCIAEIDLIPRDRPFVCAPSSKTGSVTTTYCCNQDHCNKIELPTTVKSSPGLGPVELAAVIAGPVCFVCISLMLMVYICHNRTVIHHRVPNEEDPSLDRPFISEGTTLKDLIYDMTTSGSGSGLPLLVQRTIARTIVLQESIGKGRFGEVWRGKWRGEEVAVKIFSSREERSWFREAEIYQTVMLRHENILGFIAADNKDNGTWTQLWLVSDYHEHGSLFDYLNRYTVTVEGMIKLALSTASGLAHLHMEIVGTQGKPAIAHRDLKSKNILVKKNGTCCIADLGLAVRHDSATDTIDIAPNHRVGTKRYMAPEVLDDSINMKHFESFKRADIYAMGLVFWEIARRCSIGGIHEDYQLPYYDLVPSDPSVEEMRKVVCEQKLRPNIPNRWQSCEALRVMAKIMRECWYANGAARLTALRIKKTLSQLSQQEGIKM
notes: ALK5, TGF-β type I receptor; The methods name only the EYFP version; the results use an ECFP-tagged version; also called ALK5-EYFP; source: CHO cells, transiently co-transfected, in living cells

Experiments:
Test in all cases: FRET or BRET; microscopic FRET in living CHO cells, ECFP donor and EYFP acceptor, 50 ng of each construct per 100 000 cells, 24 h after transfection, HEPES buffered ringer solution; FRET index (FI) = FRET efficiency x area with FRET; FI<51 no interaction, 51-99 weak or false positive, >=100 interaction; at least 30 cells per sample
[1] = molecular target: the molecule itself
[2] = molecular target: B1; conditions: partners not purified
[3] = molecular target: B3; conditions: partners not purified

Binder | % of cells clearly FRET-positive (FRET index >=100) [1] | mean FRET index of the positive cells [1] | % of cells clearly FRET-positive (FRET index >=100) [2] | % of cells in FRET index group 2 (FI 51-99, weak or false positive) [2] | mean FRET index of the positive cells [2] | % of cells in FRET index group 2 (FI 51-99, weak or false positive) [1] | % of cells clearly FRET-positive (FRET index >=100) [3] | % of cells in FRET index group 2 (FI 51-99, weak or false positive) [3] | mean FRET index of the positive cells [3]
B1 | 100% | 373 FRET index |  |  |  |  |  |  | 
B2 | ≥ 75% | 204 FRET index | 51% | 27% | 222 FRET index | 15% |  |  | 
B3 |  |  | 65% | 19% | 239 FRET index |  |  |  | 
B4 |  |  | 62% | 18% | 293 FRET index |  | 3% | 10% | 147 FRET index
B5 |  |  | 36% | 16% | 243 FRET index |  | 13% | 30% | 129 FRET index
